Reference: US5786145A, “Oligonucleotide competitors for binding of HIV RRE to REV protein and assays for screening inhibitors of this binding” (Medical Research Council, priority 1995, dated 1998)
“Also recorded” adds a separate entry of the source. Read-outs that look alike come from different tables or passages of the source.

Columns and labels:
rev protein [1] = experiment: Saturation filter binding of rev to labelled RNA transcripts; set-up: species or system HIV-1; conditions: for rev binding, result in words: saturation filter binding, 0 to 10 nM rev
Description: Rev protein was expressed and purified as described (33) or further purified by chromatography on Heparin-Sepharose. Rev was applied to Heparin columns in a buffer containing 200 mM NaCl/50mM Tris-HCl pH8.0/1 mM DTT/0.1 mM EDTA 0.1% Triton X-100 and eluted in buffer containing 2M NaCl. After gel filtration on Superose 6 (prep grade) columns equilibrated with 200 mM NaCl/50 mM Tris-HCl pH8.0/1 mM DTT/0.1 mM EDTA, the rev protein appeared homogeneous on SDS-polyacrylamide gels and free of RNA contaminants. Rev concentrations were determined by amino acid analysis of the purified protein.
DNA inserts containing RRE-related sequences were cloned between the EcoRI (5') and HindIII (3') sites of pGEM 1, either by cloning PCR products or by cloning annealed pairs of synthetic oligonucleotides. RNA transcripts for binding experiments were prepared by transcription of HindIII cut plasmids using T7 RNA polymerase and purified by gel electrophoresis. These transcripts carry a 5' extension of 15 nucleotides contributed by the vector and an extra A residue at the 3' end from the HindIII site, as described above.
For filter binding assays, each reaction mixture contained 20 pg of uniformly labelled RNA probe (approximately 500 cpm/pg RNA), […] sonicated salmon sperm DNA, […] yeast tRNA, 40 units RNasin (Promega) in […] TK buffer (43 mM Tris-HCl pH8.0, 50 mM KCl). Incubation was at 4° C. for 15 minutes in the presence of 0 to 10 nM purified rev protein. To measure binding, each reaction mixture was applied under gentle vacuum to a 0.45 um Millipore filter which had been pre-wetted with TK buffer. The filters were washed with […] TK buffer, dried, and radioactivity counted by liquid scintillation.
Filter binding assays contained 20 pg uniformly labelled RNA probe (500 dpm per pg RNA), 1 μg salmon sperm DNA, 0.45 μg yeast tRNA and 40 units RNasin (Promega) in 500 μl buffer containing 43 mM Tris-HCl pH 8.0, 50 mM KCl. Mutations in the purine-rich "bubble" sequence (numbered as shown in FIG. 2) were introduced into the R33 stem-loop structure (FIG. 3d) by site-directed mutagenesis.

rev protein [2] = experiment: Competition filter binding against labelled RRE RNA (FIG. 11); set-up: species or system HIV-1; conditions: 17 nM rev, 0.5 pM labelled RRE RNA; read-out: D1/2, competitor concentration reducing rev binding to labelled RRE RNA by 50%
Description: Unlabelled RRE RNA was an effective competitor and reduced rev binding to the labelled RRE RNA by 50% of the initial value with a D1/2 =2 nM. The short R33 transcript was also an effective competitor and reduced rev binding with D1/2 =8 nM. The mutations in the "bubble" either reduce or abolish specific rev binding.
Filter binding reactions contained 17 nM rev, 0.5 pM labelled RRE RNA and between 0-100 nM unlabelled competitor RNA. Empty squares, RRE RNA competitor; filled circles, R33 RNA competitor; filled triangles, R34 RNA competitor; empty triangles, R35 RNA competitor.

HIV-1 Rev [3] = target: T1, HIV-1 Rev (Human immunodeficiency virus 1, UniProt P04618 P04618:1-116); experiment: competition; D1/2 vs labelled RRE RNA, 17 nM rev; conditions: tags: none stated, heparin-Sepharose and Superose 6 purified, chain copies: oligomer (tetramer likely; about 4 per RBC6, 6-8 per full-length RRE at 50 mM KCl) stated, label: 32P uniform
HIV-1 Rev [4] = target: T1, HIV-1 Rev; experiment: filter; 50 mM KCl, 4 C; 35% bound at 10 nM rev; conditions: tags: none stated; heparin-Sepharose and Superose 6 purified; chain copies: oligomer (tetramer likely; about 4 per RBC6, 6-8 per full-length RRE at 50 mM KCl) stated; label: 32P uniform; stem-loop with altered bubble
HIV-1 Rev [5] = target: T1, HIV-1 Rev; experiment: filter; conditions: tags: none stated, heparin-Sepharose and Superose 6 purified, chain copies: oligomer (tetramer likely; about 4 per RBC6, 6-8 per full-length RRE at 50 mM KCl) stated, label: 32P uniform
HIV-1 Rev [6] = target: T1, HIV-1 Rev; experiment: competition; competes with same affinity as RBC6; conditions: tags: none stated; heparin-Sepharose and Superose 6 purified; chain copies: oligomer (tetramer likely; about 4 per RBC6, 6-8 per full-length RRE at 50 mM KCl) stated; RNA three-way junction stabilising bubble (all strands RNA)
HIV-1 Rev [7] = target: T1, HIV-1 Rev; experiment: filter; normal rev binding; conditions: tags: none stated; heparin-Sepharose and Superose 6 purified; chain copies: oligomer (tetramer likely; about 4 per RBC6, 6-8 per full-length RRE at 50 mM KCl) stated; label: 32P uniform; stem-loop with purine-rich bubble
HIV-1 Rev [8] = target: T1, HIV-1 Rev; experiment: filter; 50 mM KCl, 4 C; 21% bound at 10 nM rev; conditions: tags: none stated; heparin-Sepharose and Superose 6 purified; chain copies: oligomer (tetramer likely; about 4 per RBC6, 6-8 per full-length RRE at 50 mM KCl) stated; label: 32P uniform
HIV-1 Rev [9] = target: T1, HIV-1 Rev; experiment: filter; 50 mM KCl, 4 C; 20% bound at 10 nM rev; conditions: tags: none stated; heparin-Sepharose and Superose 6 purified; chain copies: oligomer (tetramer likely; about 4 per RBC6, 6-8 per full-length RRE at 50 mM KCl) stated; label: 32P uniform
HIV-1 Rev [10] = target: T1, HIV-1 Rev; experiment: filter; 50 mM KCl, 4 C; 15% bound at 10 nM rev; conditions: tags: none stated; heparin-Sepharose and Superose 6 purified; chain copies: oligomer (tetramer likely; about 4 per RBC6, 6-8 per full-length RRE at 50 mM KCl) stated; label: 32P uniform
HIV-1 Rev [11] = target: T1, HIV-1 Rev; experiment: filter; 50 mM KCl, 4 C; 17% bound at 10 nM rev; conditions: tags: none stated; heparin-Sepharose and Superose 6 purified; chain copies: oligomer (tetramer likely; about 4 per RBC6, 6-8 per full-length RRE at 50 mM KCl) stated; label: 32P uniform
HIV-1 Rev [12] = target: T1, HIV-1 Rev; experiment: filter; 50 mM KCl, 4 C; 40% bound at 10 nM rev; conditions: tags: none stated, heparin-Sepharose and Superose 6 purified, chain copies: oligomer (tetramer likely; about 4 per RBC6, 6-8 per full-length RRE at 50 mM KCl) stated, label: 32P uniform
HIV-1 Rev [13] = target: T1, HIV-1 Rev; experiment: filter; 50 mM KCl, 4 C; 18% bound at 10 nM rev; conditions: tags: none stated; heparin-Sepharose and Superose 6 purified; chain copies: oligomer (tetramer likely; about 4 per RBC6, 6-8 per full-length RRE at 50 mM KCl) stated; label: 32P uniform
HIV-1 Rev [14] = target: T1, HIV-1 Rev; experiment: filter; shortest T7 transcript with full affinity; conditions: tags: none stated; heparin-Sepharose and Superose 6 purified; chain copies: oligomer (tetramer likely; about 4 per RBC6, 6-8 per full-length RRE at 50 mM KCl) stated; label: 32P uniform; stem-loop with purine-rich bubble
HIV-1 Rev [15] = target: T1, HIV-1 Rev; experiment: filter; same affinity as full-length RRE; conditions: tags: none stated; heparin-Sepharose and Superose 6 purified; chain copies: oligomer (tetramer likely; about 4 per RBC6, 6-8 per full-length RRE at 50 mM KCl) stated; label: 32P uniform; stem-loop with purine-rich bubble
HIV-1 Rev [16] = target: T1, HIV-1 Rev; experiment: filter; bubble not formed; conditions: tags: none stated; heparin-Sepharose and Superose 6 purified; chain copies: oligomer (tetramer likely; about 4 per RBC6, 6-8 per full-length RRE at 50 mM KCl) stated; label: 32P uniform
[17] = Table I, filter binding, 20 pg labelled RNA probe, 50 mM KCl, read-out: Kd
[18] = stem-loop with purine-rich bubble on 9-bp stem

R33: stem-loop of residues 33 to 63, A56 deleted, inserted on top of a stem containing 9 base pairs; wild-type bubble (GGGAGACCGGAAUUCUGGGCGCAGUGUCAUUGACGCUGCGGUACAGAAUUCCGGCA; chemistry not given here)
% RNA bound (10 nM rev) (rev protein [1]; Table I, 50 mM KCl): 40% | Kd (rev protein [1]; [17]): 3 nM | rev binding, result in words (rev protein [1]): Normal rev binding | IC50 (rev protein [2]): 8 nM

R34 (GGGAGACCGGAAUUCUGCGCAGUGUCAUUGACGCUGCGGUACAGAAUUCCGGC; chemistry not given here)
% RNA bound (10 nM rev) (rev protein [1]; Table I, 50 mM KCl): 3% | rev binding, result in words (rev protein [1]): abolished specific rev binding; also recorded: does not bind rev with measurable affinity | IC50 (rev protein [2]): > 250 nM

R35 (GGGAGACCGGAAUUCUGGCGCAGUGUCAUUGACGCUGCGGUACAGAAUUCCGGCA; chemistry not given here)
% RNA bound (10 nM rev) (rev protein [1]; Table I, 50 mM KCl): 35% | Kd (rev protein [1]; [17]): 4 nM | Kd (rev protein [1]; saturation filter binding of T7 transcripts, read-out: Kd for rev binding): 4 nM | rev binding, result in words (rev protein [1]): reduced rev binding slightly | IC50 (rev protein [2]): 16 nM

B1: R35 (dG35) (ssRNA)
RNA: GGGAGACCGGAAUUCUGGCGCAGUGUCAUUGACGCUGCGGUACAGAAUUCCGGCA
IC50 (HIV-1 Rev [3]; stem-loop with altered bubble): 16 nM | Kd (HIV-1 Rev [4]): 4 nM

GGGAGACCGGAAUUCUGGGCGCUUCGGCGGUACAGA (ssRNA) [R38 (upper stem-loop replaced by CUUCGG)]
Kd (HIV-1 Rev [5]; hairpin with purine-rich bubble): 1.73 nM

B2: TWJ-U (structured_DNA)
DNA 1: GCACUAUGGGCGCAGC
DNA 2: GCUGCGGUACAGGCCAGA
DNA 3: UCUGGUAUAGUGC
binding result (HIV-1 Rev [6]): binds

GGGAGACCGGAAUUCUGGGCGCAGUGUCAUUGACGCUGCGGUACAGGCA (ssRNA) [R22 (A56 deleted)]
Kd (HIV-1 Rev [5]; stem-loop with purine-rich bubble): 1.73 nM

GGGAGACCGGAAUUCUGGGCGCAGCGUCAUUGACACUGCGGUACAGGCA (ssRNA) [R30 (upper stem antisense)]
binding result (HIV-1 Rev [7]): binds

B3: R55 (ssRNA)
RNA: GGGAGACCGGAAUUCUAGGCGCAGUGUCAUUGACGCUGCGGUAUAGAAUUCCGGCA
modifications: [-]
Kd (HIV-1 Rev [8]): 4 nM

B4: R50 (ssRNA)
RNA: GGGAGACCGGAAUUCUGGACGCAGUGUCAUUGACGCUGCGGUACAGAAUUCCGGCA
modifications: [-]
Kd (HIV-1 Rev [9]): 5 nM

B5: R39 (ssRNA)
RNA: GGGAGACCGGAAUUCAGGGCGCAGUGUCAUUGACGCUGCGGUACUGAAUUCCGGCA
modifications: [-]
Kd (HIV-1 Rev [10]): 8 nM

B6: R54 (ssRNA)
RNA: GGGAGACCGGAAUUCCGGGCGCAGUGUCAUUGACGCUGCGGUACGGAAUUCCGGCA
modifications: [-]
Kd (HIV-1 Rev [11]): 6 nM

B7: R57 (ssRNA)
RNA: GGGAGACCGGAAUUCUGGGCACAGUGUCAUUGACGCUGUGGUACAGAAUUCCGGCA
modifications: [-]
Kd (HIV-1 Rev [12]): 3 nM

B8: R52 (ssRNA)
RNA: GGGAGACCGGAAUUCUGGGCGCAGUGUCAUUGACGCUGCGGCACAGAAUUCCGGCA
modifications: [-]
Kd (HIV-1 Rev [13]): 5 nM

B9: R33 (ssRNA)
RNA: GGGAGACCGGAAUUCUGGGCGCAGUGUCAUUGACGCUGCGGUACAGAAUUCCGGCA
Kd (HIV-1 Rev [12]; [18]): 3 nM | IC50 (HIV-1 Rev [3]; [18]): 8 nM

B10: R42 (ssRNA)
RNA: GGGAGACCGGAAUUCUGGGCCCAGUGUCAUUGACGCUGGGGUACAGAAUUCCGGCA
modifications: [none]
Kd (HIV-1 Rev [13]): 8 nM

GGGAGACCGGAAUUCUGGGCGCAGUGUCAUUGACGCUGACGGUACAGGCA (ssRNA) [R19 (RRE 33-66)]
Kd (HIV-1 Rev [14]): 1.73 nM

GGGAGACCGGAAUUCUGGGCGCAGUGUCAAUGACGCUGACGGUACAGGCA (ssRNA) [R29 (apex loop antisense)]
binding result (HIV-1 Rev [7]): binds

B11: RRE fragment 1-96 (ssRNA)
RNA: GGGAGACCGGAAUUCCCUUGGGUUCUUGGGAGCAGCAGGAAGCACUAUGGGCGCAGUGUCAUUGACGCUGACGGUACAGGCCAGACAAUUAUUGUCUGGUAUAGUGCAACA
binding result (HIV-1 Rev [15]): binds

B12: RRE fragment 26-72 (ssRNA)
RNA: GGGAGACCGGAAUUCAGCACUAGGGCGCAGUGUCAUUGACGCUGAGGGUACAGGCCAGACAAUUAUA
binding result (HIV-1 Rev [16]): no binding

B13: RRE fragment 26-92 (ssRNA)
RNA: GGGAGACCGGAAUUCAGCACUAUGGGCGCAGUGUCAUUGACGCUGACGGUACAGGCCAGACAAUUAUUGUCUGGUAUAGUGCA
binding result (HIV-1 Rev [15]): binds
